Holding throughout (assay): Flow cytometry reactivity test (Example 7)
Type in all cases: binding
(A flow cytometer gives signals particle by particle.)

In test [1] the test system is A-375. The following applies: Ep-CAM-negative cell line A-375. The procedure:
(§1) The flow cytometry tests were conducted by incubating the constructs or control with 0.45×10^6 cells for an hour on ice. After washing, cell surface bound constructs were detected with a rabbit anti-bouganin (for FIG. 10A) or mouse anti-His tag (FIG. 10B) for an hour on ice. The cells were washed and incubated with FITC-conjugated sheep anti-rabbit IgG (FIG. 10A) and FITC-conjugated sheep anti-mouse (IgG) (FIG. 10B) for 30 minutes on ice. Subsequently the cells were washed, resuspended in PBS 5% FCS containing propidium iodide for assessment of antibody binding by flow cytometry.

The subject of test [2] is CAL 27. The following applies: Ep-CAM positive cell line CAL 27. The procedure: as §1
Test [3] deals with NIH:OVCAR-3. The following applies: Ep-CAM positive cell line NIH:OVCAR-3. The method, then:
as §1

B1: VB6-845-CL-de-bouganin: Fab anti-Ep-CAM de-bouganin construct, Bou156 linked at the C-terminus of the CL domain (protein)
chain 1: HHHHHHEVQLVQSGPGLVQPGGSVRISCAASGYTFTNYGMNWVKQAPGKGLEWMGWINTYTGESTYADSFKGRFTFSLDTSASAAYLQINSLRAEDTAVYYCARFAIKGDYWGQGTLLTVSSASTKGPSVFPLAPSSKSTSGGTAALGCLVKDYFPEPVTVSWNSGALTSGVHTFPAVLQSSGLYSLSSVVTVPSSSLGTQTYICNVNHKPSNTKVDKKVEPKSC
chain 2: DIQMTQSPSSLSASVGDRVTITCRSTKSLLHSNGITYLYWYQQKPGKAPKLLIYQMSNLASGVPSRFSSSGSGTDFTLTISSLQPEDFATYYCAQNLEIPRTFGQGTKVELKRTVAAPSVFIFPPSDEQLKSGTASVVCLLNNFYPREAKVQWKVDNALQSGNSQESVTEQDSKDSTYSLSSTLTLSKADYEKHKVYACEVTHQGLSSPVTKSFNRGECTRHRQPRGWEQLYNTVSFNLGEAYEYPTFIQDLRNELAKGTPVCQLPVTLQTIADDKRFVLVDITTTSKKTVKVAIDVTDVYVVGYQDKWDGKDRAVFLDKVPTVATSKLFPGVTNRVTLTFDGSYQKLVNAAKADRKALELGVNKLEFSIEAIHGKTINGQEAAKFFLIVIQMVSEAARFKYIETEVVDRGLYGSFKPNFKVLNLENNWGDISDAIHKSSPQCTTINPALQLISPSNDPWVVNKVSQISPDMGILKFKSSK
In the case of B1, the “shift in median fluorescence” value in test [1] is listed as “No shift in median fluorescence”; in test [2] it was “marked shift in median fluorescence”; in test [3] it was “marked shift in median fluorescence”.
